Assay results as given in PMC9359538.

Legend:
[1] = target: HSV-1 gE expressed from recombinant adenovirus (HSV-1) (UniProt P04488); test: co-IP; lysates of 293 cells infected with adenovirus expressing gE (48 h) or with HSV-1; IP with anti-gE Ab; western blot for Anx-A1; band ratio Anx-A1/gE
[2] = target: HSV-1 glycoprotein E (HSV-1) (UniProt P04488); test: as above

B1: annexin A1 (natural protein)
chain: MAMVSEFLKQAWFIENEEQEYVQTVKSSKGGPGSAVSPYPTFNPSSDVAALHKAIMVKGVDEATIIDILTKRNNAQRQQIKAAYLQETGKPLDETLKKALTGHLEEVVLALLKTPAQFDADELRAAMKGLGTDEDTLIEILASRTNKEIRDINRVYREELKRDLAKDITSDTSGDFRNALLSLAKGDRSEDFGVNEDLADSDARALYEAGERRKGTDVNVFNTILTTRSYPQLRRVFQKYTKYSKHDMNKVLDLELKGDIEKCLTAIVKCATSKPAFFAEKLHQAMKGVGTRHKALIRIMVSRSEIDMNDIKAFYQKMYGISLCQAILDETKGDYEKILVALCGGN
With B1 as the binder, how does the Anx-A1/gE ratio in the co-precipitate [1] read?
The Anx-A1/gE ratio in the co-precipitate was 0.44.

What about the Anx-A1/gE ratio in the co-precipitate [2] of the same binder?
Its Anx-A1/gE ratio in the co-precipitate is 0.51.
